Data on 9 sequences can be found in the supplement of paper PMC11246515.

± gives the standard deviation of the averaged measurements. Some results are limits rather than exact numbers.

The data set is described as follows: total protein half-life in vivo (active degradation + dilution); higher = more stable protein.
The mark [1] stands for this setting: E. coli NCM3722 delta-clpP delta-lon delta-hslV, growth: N-lim chemostat, doubling time 6 h.
The mark [2] stands for this setting: E. coli NCM3722 delta-clpP, growth: N-lim chemostat, doubling time 6 h.
Setting [3] is: E. coli NCM3722 delta-hslV, growth: N-lim chemostat, doubling time 6 h.
Setting [4] is: E. coli NCM3722 delta-lon, growth: N-lim chemostat, doubling time 6 h.
[5] abbreviates: E. coli NCM3722 delta-smpB, growth: N-lim chemostat, doubling time 6 h.
[6] abbreviates: wild type E. coli NCM3722, growth: C-lim chemostat, doubling time 3 h.
Setting [7] is: wild type E. coli NCM3722, growth: C-lim chemostat, doubling time 6 h.
[8] abbreviates: wild type E. coli NCM3722, growth: C-lim chemostat, doubling time 12 h.
Where [9] appears, read: wild type E. coli NCM3722, growth: N-lim chemostat, doubling time 6 h.
Where [10] appears, read: wild type E. coli NCM3722, growth: N-lim chemostat, doubling time 12 h.
Where [11] appears, read: wild type E. coli NCM3722, growth: P-lim chemostat, doubling time 6 h.
Setting [12] is: wild type E. coli NCM3722, growth: P-lim chemostat, doubling time 12 h.

In the case of “MQSVDVAIVGGGMVGLAVACGLQGSGLRVAVLEQRVQEPLAANAPPQLRVSAINAASEKLLTRLGVWQDILSRRASCYHGMEVWDKDSFGHISFDDQSMGYSHLGHIVENSVIHYALWNKAHQSSDITLLAPAELQQVAWGENETFLTLKDGSMLTARLVIGADGANSWLRNKADIPLTFWDYQHHALVATIRTEEPHDAVARQVFHGEGILAFLPLSDPHLCSIVWSLSPEEAQRMQQASEDEFNRALNIAFDNRLGLCKVESARQVFPLTGRYARQFASHRLALVGDAAHTIHPLAGQGVNLGFMDAAELIAELKRLHRQGKDIGQYIYLRRYERSRKHSAALMLAGMQGFRDLFSGTNPAKKLLRDIGLKLADTLPGVKPQLIRQAMGLNDLPEWLR”, the “total protein half-life in vivo” value under setting [1] stood at 5.67 ± 0.7 h; the “total protein half-life in vivo” value under setting [2] stood at 5.28 ± 0.23 h; the “total protein half-life in vivo” value under setting [3] was determined as 4.33 ± 0.36 h; the “total protein half-life in vivo” value under setting [4] came out at 4.06 ± 0.068 h; the “total protein half-life in vivo” value under setting [5] is 4.06 ± 0.21 h; the “total protein half-life in vivo” value under setting [6] stood at 2.864 ± 0.025 h. Further, the “total protein half-life in vivo” value amounted to 5.52 ± 0.85 h under setting [7]; 7.26 ± 0.26 h under setting [8]; 4.1 ± 0.084 h under setting [9]; 7.19 ± 0.06 h under setting [10]; 3.16 ± 0.12 h under setting [11]; 5.3 ± 0.84 h under setting [12].

With “MKTINTVVAAMALSTLSFGVFAAEPVTASQAQNMNKIGVVSADGASTLDALEAKLAEKAAAAGASGYSITSATNNNKLSGTAVIYK [P0AAX3]”, the “total protein half-life in vivo” value under setting [5] is 0.346 h.

“MFDIGVNLTSSQFAKDRDDVVACAFDAGVNGLLITGTNLRESQQAQKLARQYSSCWSTAGVHPHDSSQWQAATEEAIIELAAQPEVVAIGECGLDFNRNFSTPEEQERAFVAQLRIAADLNMPVFMHCRDAHERFMTLLEPWLDKLPGAVLHCFTGTREEMQACVAHGIYIGITGWVCDERRGLELRELLPLIPAEKLLIETDAPYLLPRDLTPKPSSRRNEPAHLPHILQRIAHWRGEDAAWLAATTDANVKTLFGIAF”: the “total protein half-life in vivo” value was 5.07 ± 0.43 h under setting [1]; 4.32 ± 0.31 h under setting [2]; 5.25 ± 0.68 h under setting [4]; 3.97 ± 0.48 h under setting [5]; 2.67 h under setting [6]; 5.44 ± 0.34 h under setting [7]. In addition, the “total protein half-life in vivo” value is, setting by setting: under setting [8], 8.95 ± 0.15 h; under setting [9], 5.25 ± 1 h; under setting [10], 8.13 ± 1.8 h; under setting [11], 4.15 ± 0.38 h; under setting [12], 9.01 ± 0.23 h.

For the sequence “MDVTAKYELIGLMAYPIRHSLSPEMQNKALEKAGLPFTYMAFEVDNDSFPGAIEGLKALKMRGTGVSMPNKQLACEYVDELTPAAKLVGAINTIVNDDGYLRGYNTDGTGHIRAIKESGFDIKGKTMVLLGAGGASTAIGAQGAIEGLKEIKLFNRRDEFFDKALAFAQRVNENTDCVVTVTDLADQQAFAEALASADILTNGTKVGMKPLENESLVNDISLLHPGLLVTECVYNPHMTKLLQQAQQAGCKTIDGYGMLLWQGAEQFTLWTGKDFPLEYVKQVMGFGA [P0A6D5]”, the “total protein half-life in vivo” value under setting [1] was 4.77 h.

As to “MDFNLNDEQELFVAGIRELMASENWEAYFAECDRDSVYPERFVKALADMGIDSLLIPEEHGGLDAGFVTLAAVWMELGRLGAPTYVLYQLPGGFNTFLREGTQEQIDKIMAFRGTGKQMWNSAITEPGAGSDVGSLKTTYTRRNGKIYLNGSKCFITSSAYTPYIVVMARDGASPDKPVYTEWFVDMSKPGIKVTKLEKLGLRMDSCCEITFDDVELDEKDMFGREGNGFNRVKEEFDHERFLVALTNYGTAMCAFEDAARYANQRVQFGEAIGRFQLIQEKFAHMAIKLNSMKNMLYEAAWKADNGTITSGDAAMCKYFCANAAFEVVDSAMQVLGGVGIAGNHRISRFWRDLRVDRVSGGSDEMQILTLGRAVLKQYR”, the “total protein half-life in vivo” value by setting is: under setting [1], greater than 8 h; under setting [4], 3.62 ± 0.096 h; under setting [5], 2.77 ± 0.42 h; under setting [6], 2.46 h; under setting [7], 3.58 h; under setting [8], 7.41 ± 1.4 h. Moreover, the “total protein half-life in vivo” value reads like this: under setting [11], 5.45 ± 0.16 h; under setting [12], 11.5 ± 1.7 h.

“MLNIVLYEPEIPPNTGNIIRLCANTGFRLHIIEPMGFAWDDKRLRRAGLDYHEFTAVTRHHDYRAFLEAENPQRLFALTTKGTPAHSAVSYQDGDYLMFGPETRGLPASILDALPAEQKIRIPMVPDSRSMNLSNAVSVVVYEAWRQLGYPGAVLRD [P0AGJ7]”: the “total protein half-life in vivo” value stood at 5.27 ± 0.13 h under setting [1]; 5.83 ± 0.49 h under setting [3]; 5.54 ± 0.16 h under setting [4]; 4.82 ± 0.33 h under setting [5]; 2.91 ± 0.35 h under setting [6]; 6.26 h under setting [7]. The “total protein half-life in vivo” value reads like this: under setting [8], 13.8 ± 2.8 h; under setting [9], 5.23 h; under setting [10], 8.21 ± 0.38 h; under setting [11], 5.93 ± 0.22 h; under setting [12], 11.9 ± 0.24 h.

“MFDIGFSELLLVFIIGLVVLGPQRLPVAVKTVAGWIRALRSLATTVQNELTQELKLQEFQDSLKKVEKASLTNLTPELKASMDELRQAAESMKRSYVANDPEKASDEAHTIHNPVVKDNEAAHEGVTPAAAQTQASSPEQKPETTPEPVVKPAADAEPKTAAPSPSSSDKP”: the “total protein half-life in vivo” value under setting [1] was found to be 4.29 ± 0.055 h; the “total protein half-life in vivo” value under setting [2] turned out to be 5.27 ± 1.5 h; the “total protein half-life in vivo” value under setting [3] was found to be 5.04 ± 0.61 h; the “total protein half-life in vivo” value under setting [4] was 3.92 ± 0.51 h; the “total protein half-life in vivo” value under setting [5] is 4.49 ± 0.26 h; the “total protein half-life in vivo” value under setting [6] was determined as 2.57 ± 0.12 h. In addition, the “total protein half-life in vivo” value is 4.41 ± 0.55 h under setting [7]; 7 ± 1.1 h under setting [8]; 4.65 ± 0.15 h under setting [9]; 8.87 ± 1.3 h under setting [10]; 4.27 ± 0.49 h under setting [11]; 7.92 ± 0.28 h under setting [12].

“MKTKLMTLQDATGFFRDGMTIMVGGFMGIGTPSRLVEALLESGVRDLTLIANDTAFVDTGIGPLIVNGRVRKVIASHIGTNPETGRRMISGEMDVVLVPQGTLIEQIRCGGAGLGGFLTPTGVGTVVEEGKQTLTLDGKTWLLERPLRADLALIRAHRCDTLGNLTYQLSARNFNPLIALAADITLVEPDELVETGELQPDHIVTPGAVIDHIIVSQESK”: the “total protein half-life in vivo” value under setting [8] stood at 8.54 h.

As for “MRTVLNILNFVLGGFATTLGWLLATLVSIVLIFTLPLTRSCWEITKLSLVPYGNEAIHVDELNPAGKNVLLNTGGTVLNIFWLIFFGWWLCLMHIATGIAQCISIIGIPVGIANFKIAAIALWPVGRRVVSVETAQAAREANARRRFE [P0AB12]”, the “total protein half-life in vivo” value was determined as 6.35 ± 0.66 h under setting [1]; 6.3 ± 0.72 h under setting [2]; 5.92 ± 0.069 h under setting [3]; 5.93 ± 0.27 h under setting [4]; 6.1 ± 0.31 h under setting [5]; 2.89 ± 0.29 h under setting [6]. Also, the “total protein half-life in vivo” value is 6.33 ± 0.089 h under setting [7]; 12.5 ± 1 h under setting [8]; 6.72 ± 1.3 h under setting [9]; 12.3 ± 3.2 h under setting [10]; 5.98 ± 0.26 h under setting [11]; 12 ± 0.12 h under setting [12].
